Test results: US20160333060A1 (UNITED STATES OF AMERICA AS REPRESENTED BY THE SECRETARY …, published 2016)

Target: T1, recombinant HIV-1HXB2 gp41 (Vybion Inc.) (HIV-1 HXB2, UniProt P04578 541-682)
T1 construct: domain: gp41; Bought reagent; also called rgp41
Assay: ELISA, plate-bound recombinant HIV-1HXB2 gp41, serial dilutions of rCNID-1-Trx, detection with rabbit anti-CNID-1

B1: recombinant CNID-1 in fusion with thioredoxin (thioredoxin-hexahistidine-CNID-1) (other)
chain: GRATLGQLKTSTIPPVTFDVPFDGANIPQDVRFTIATVNGGKGALYNAELGESAGHTIVLESDGDHPIPGTFDPKSGRGLDYLPRGLVLFSSHNYVGNMKMYTEPDSDITADFPPGTPFGVSSAITGEGSAFQLNTGIDHTGEFEIIPPNTKRNLAGVFDNEIRSVSPTGGK
modifications: Europium label in the reference-protein ELISA only; otherwise none stated
notes: The N-terminal residue of native CNID-1 is sarcosine; also called rCNID-1-Trx; CNID-1-Trx; not shown: N-terminal thioredoxin (Trx) encoded by the Novagen pET32b(+) Trx fusion vector
binding result: no binding
